The series is described as follows: total protein half-life in vivo (active degradation + dilution); higher = more stable protein.
[1] abbreviates: E. coli NCM3722 delta-clpP delta-lon delta-hslV, growth: N-lim chemostat, doubling time 6 h.
Setting [2] is: wild type E. coli NCM3722, growth: C-lim chemostat, doubling time 3 h.
[3] abbreviates: wild type E. coli NCM3722, growth: C-lim chemostat, doubling time 6 h.
[4] abbreviates: wild type E. coli NCM3722, growth: C-lim chemostat, doubling time 12 h.
[5] abbreviates: E. coli NCM3722 delta-clpP, growth: N-lim chemostat, doubling time 6 h.
Where [6] appears, read: E. coli NCM3722 delta-hslV, growth: N-lim chemostat, doubling time 6 h.
Where [7] appears, read: E. coli NCM3722 delta-lon, growth: N-lim chemostat, doubling time 6 h.
Where [8] appears, read: E. coli NCM3722 delta-smpB, growth: N-lim chemostat, doubling time 6 h.
Setting [9] is: wild type E. coli NCM3722, growth: N-lim chemostat, doubling time 6 h.
[10] abbreviates: wild type E. coli NCM3722, growth: N-lim chemostat, doubling time 12 h.
The mark [11] stands for this setting: wild type E. coli NCM3722, growth: P-lim chemostat, doubling time 6 h.
Where [12] appears, read: wild type E. coli NCM3722, growth: P-lim chemostat, doubling time 12 h.

From the supplement of paper PMC11246515 come the findings set out here.

± gives the standard deviation of the averaged measurements. Some results are limits rather than exact numbers.

With “MSIISTKYLLQDAQANGYAVPAFNIHNAETIQAILEVCSEMRSPVILAGTPGTFKHIALEEIYALCSAYSTTYNMPLALHLDHHESLDDIRRKVHAGVRSAMIDGSHFPFAENVKLVKSVVDFCHSQDCSVEAELGRLGGVEDDMSVDAESAFLTDPQEAKRFVELTGVDSLAVAIGTAHGLYSKTPKIDFQRLAEIREVVDVPLVLHGASDVPDEFVRRTIELGVTKVNVATELKIAFAGAVKAWFAENPQGNDPRYYMRVGMDAMKEVVRNKINVCGSANRISA [P0AB74]”, the “total protein half-life in vivo” value runs as follows: under setting [1], over 8 h; under setting [2], 2.35 ± 1.1 h; under setting [3], 3.2 h; under setting [4], 4.72 h.
On to “MNAEKSPVNHNVDHEEIAKFEAVASRWWDLEGEFKPLHRINPLRLGYIAERAGGLFGKKVLDVGCGGGILAESMAREGATVTGLDMGFEPLQVAKLHALESGIQVDYVQETVEEHAAKHAGQYDVVTCMEMLEHVPDPQSVVRACAQLVKPGGDVFFSTLNRNGKSWLMAVVGAEYILRMVPKGTHDVKKFIKPAELLGWVDQTSLKERHITGLHYNPITNTFKLGPGVDVNYMLHTQNK”, for which the “total protein half-life in vivo” value runs as follows: under setting [1], 4.74 ± 0.1 h; under setting [5], 4.09 ± 0.23 h; under setting [6], 3.48 ± 0.11 h; under setting [7], 4.02 ± 0.45 h; under setting [8], 3.46 ± 0.082 h; under setting [2], 2.45 ± 0.027 h. Besides, the “total protein half-life in vivo” value under setting [3] stood at 4.96 ± 0.83 h; the “total protein half-life in vivo” value under setting [4] was determined as 6.694 ± 0.058 h; the “total protein half-life in vivo” value under setting [9] turned out to be 3.85 ± 0.49 h; the “total protein half-life in vivo” value under setting [10] worked out at 5.66 ± 0.72 h; the “total protein half-life in vivo” value under setting [11] came out at 3.13 ± 0.38 h; the “total protein half-life in vivo” value under setting [12] came out at 5.66 ± 0.45 h.
On to “MQSWYLLYCKRGQLQRAQEHLERQAVNCLAPMITLEKIVRGKRTAVSEPLFPNYLFVEFDPEVIHTTTINATRGVSHFVRFGASPAIVPSAVIHQLSVYKPKDIVDPATPYPGDKVIITEGAFEGFQAIFTEPDGEARSMLLLNLINKEIKHSVKNTEFRKL [P0AFW0]”, for which the “total protein half-life in vivo” value under setting [1] is 4.25 ± 0.76 h; the “total protein half-life in vivo” value under setting [5] is 3.41 ± 0.17 h; the “total protein half-life in vivo” value under setting [6] came to 3.23 h; the “total protein half-life in vivo” value under setting [7] was 3.931 ± 0.015 h; the “total protein half-life in vivo” value under setting [8] amounted to 2.52 ± 0.22 h; the “total protein half-life in vivo” value under setting [2] stood at 3.08 ± 0.73 h. Further, the “total protein half-life in vivo” value runs as follows: under setting [3], 5.24 ± 1.7 h; under setting [4], 6.64 ± 1.1 h; under setting [9], 3.18 h; under setting [10], 5.43 ± 1.4 h; under setting [11], 4.35 ± 0.79 h; under setting [12], 7.71 h.
With “MRLEFSIYRYNPDVDDAPRMQDYTLEADEGRDMMLLDALIQLKEKDPSLSFRRSCREGVCGSDGLNMNGKNGLACITPISALNQPGKKIVIRPLPGLPVIRDLVVDMGQFYAQYEKIKPYLLNNGQNPPAREHLQMPEQREKLDGLYECILCACCSTSCPSFWWNPDKFIGPAGLLAAYRFLIDSRDTETDSRLDGLSDAFSVFRCHSIMNCVSVCPKGLNPTRAIGHIKSMLLQRNA”, the “total protein half-life in vivo” value runs as follows: under setting [1], 6.38 ± 1.4 h; under setting [5], 5.1 ± 0.12 h; under setting [6], 5.6 ± 0.19 h; under setting [7], 5.16 ± 1.2 h; under setting [8], 5.06 ± 0.28 h; under setting [2], 3.17 ± 0.81 h. Besides, the “total protein half-life in vivo” value under setting [3] is 6.28 ± 0.13 h; the “total protein half-life in vivo” value under setting [4] was 11.9 ± 0.33 h; the “total protein half-life in vivo” value under setting [9] amounted to 5.22 ± 0.7 h; the “total protein half-life in vivo” value under setting [10] amounted to 10.7 ± 0.97 h; the “total protein half-life in vivo” value under setting [11] came out at 5.138 ± 0.038 h; the “total protein half-life in vivo” value under setting [12] was 10.5 ± 0.14 h.
On to “METKNLTIGERIRYRRKNLKHTQRSLAKALKISHVSVSQWERGDSEPTGKNLFALSKVLQCSPTWILFGDEDKQPTPPVEKPVALSPKELELLELFNALPESEQDTQLAEMRARVKNFNKLFEELLKARQRTNKR”, for which the “total protein half-life in vivo” value reads like this: under setting [1], 6.79 ± 1 h; under setting [5], 5.32 ± 0.38 h; under setting [6], 5.9 ± 0.15 h; under setting [7], 6.27 ± 0.067 h; under setting [8], 5.86 ± 0.56 h; under setting [2], 3.21 ± 0.043 h. Also, the “total protein half-life in vivo” value by setting is: under setting [3], 5.25 ± 0.77 h; under setting [4], 6.96 ± 1.7 h; under setting [9], 4.971 ± 0.028 h; under setting [10], 10.2 ± 2.7 h; under setting [11], 5.33 ± 1 h; under setting [12], 10.7 ± 0.66 h.
Regarding “MKRLHKRFLLATFCALFTATLQAADVTITVNGRVVAKPCTIQTKEANVNLGDLYTRNLQQPGSASGWHNITLSLTDCPVETSAVTAIVTGSTDNTGYYKNEGTAENIQIELRDDQDAALKNGDSKTVIVDEITRNAQFPLKARAITVNGNASQGTIEALINVIYTWQ”, the “total protein half-life in vivo” value under setting [8] is 5.55 h.
For the sequence “MTLLNISGLSHHYAHGGFNGKHQHQAVLNNVSLTLKSGETVALLGRSGCGKSTLARLLVGLESPAQGNISWRGEPLAKLNRAQRKAFRRDIQMVFQDSISAVNPRKTVREILREPMRHLLSLKKSEQLARASEMLKAVDLDDSVLDKRPPQLSGGQLQRVCLARALAVEPKLLILDEAVSNLDLVLQAGVIRLLKKLQQQFGTACLFITHDLRLVERFCQRVMVMDNGQIVETQVVGEKLTFSSDAGRVLQNAVLPAFPVRRRTTEKV”, under setting [1], the “total protein half-life in vivo” value worked out at 6.58 h.
As for “MTEQQKLTFTALQQRLDSLMLRDRLRFSRRLHGVKKVKNPDAQQAIFQEMAKEIDQAAGKVLLREAARPEITYPDNLPVSQKKQDILEAIRDHQVVIVAGETGSGKTTQLPKICMELGRGIKGLIGHTQPRRLAARTVANRIAEELKTEPGGCIGYKVRFSDHVSDNTMVKLMTDGILLAEIQQDRLLMQYDTIIIDEAHERSLNIDFLLGYLKELLPRRPDLKIIITSATIDPERFSRHFNNAPIIEVSGRTYPVEVRYRPIVEEADDTERDQLQAIFDAVDELSQESHGDILIFMSGEREIRDTADALNKLNLRHTEILPLYARLSNSEQNRVFQSHSGRRIVLATNVAETSLTVPGIKYVIDPGTARISRYSYRTKVQRLPIEPISQASANQRKGRCGRVSEGICIRLYSEDDFLSRPEFTDPEILRTNLASVILQMTALGLGDIAAFPFVEAPDKRNIQDGVRLLEELGAITTDEQASAYKLTPLGRQLSQLPVDPRLARMVLEAQKHGCVREAMIITSALSIQDPRERPMDKQQASDEKHRRFHDKESDFLAFVNLWNYLGEQQKALSSNAFRRLCRTDYLNYLRVREWQDIYTQLRQVVKELGIPVNSEPAEYREIHIALLTGLLSHIGMKDADKQEYTGARNARFSIFPGSGLFKKPPKWVMVAELVETSRLWGRIAARIDPEWVEPVAQHLIKRTYSEPHWERAQGAVMATEKVTVYGLPIVAARKVNYSQIDPALCRELFIRHALVEGDWQTRHAFFRENLKLRAEVEELEHKSRRRDILVDDETLFEFYDQRISHDVISARHFDSWWKKVSRETPDLLNFEKSMLIKEGAEKISKLDYPNFWHQGNLKLRLSYQFEPGADADGVTVHIPLPLLNQVEESGFEWQIPGLRRELVIALIKSLPKPVRRNFVPAPNYAEAFLGRVKPLELPLLDSLERELRRMTGVTVDREDWHWDQVPDHLKITFRVVDDKNKKLKEGRSLQDLKDALKGKVQETLSAVADDGIEQSGLHIWSFGQLPESYEQKRGNYKVKAWPALVDERDSVAIKLFDNPLEQKQAMWNGLRRLLLLNIPSPIKYLHEKLPNKAKLGLYFNPYGKVLELIDDCISCGVDKLIDANGGPVWTEEGFAALHEKVRAELNDTVVDIAKQVEQILTAVFNINKRLKGRVDMTMALGLSDIKAQMGGLVYRGFVTGNGFKRLGDTLRYLQAIEKRLEKLAVDPHRDRAQMLKVENVQQAWQQWINKLPPARREDEDVKEIRWMIEELRVSYFAQQLGTPYPISDKRILQAMEQISG”, the “total protein half-life in vivo” value is 6.34 ± 0.51 h under setting [1]; 6.5 ± 1.2 h under setting [5]; 5.99 ± 0.13 h under setting [6]; 5.89 ± 0.89 h under setting [7]; 5.46 ± 0.8 h under setting [8]; 3.53 ± 0.13 h under setting [2]. The “total protein half-life in vivo” value is, setting by setting: under setting [3], 6.34 ± 0.23 h; under setting [4], 12.8 ± 1.3 h; under setting [9], 5.66 ± 0.1 h; under setting [10], 11.2 ± 0.78 h; under setting [11], 5.71 ± 0.12 h; under setting [12], 11.3 ± 0.18 h.
